# From article doi:10.1101/2020.07.13.201541
# How the values were obtained:
# Assay in all cases: SPR
# [1] = target: HtsH2C-HA-His (cytoplasmic fragment of HtsH2) (Lysobacter enzymogenes)
# [2] = target: HtsH3C-Myc-His (cytoplasmic fragment of HtsH3) (Lysobacter enzymogenes)
# [3] = target: RpfG-MBP (Lysobacter enzymogenes)
Kd [1],Kd [2],Kd [3],Substance
96.2 pM,160 pM,66.8 pM,HtsH1C-Flag-His (cytoplasmic fragment of HtsH1) (domain or fragment)
,178 pM,300 pM,HtsH2C-HA-His (cytoplasmic fragment of HtsH2) (domain or fragment)
,,168 pM,HtsH3C-Myc-His (cytoplasmic fragment of HtsH3) (domain or fragment)
